Measurements as given in patent US11111484B2, “Streptococcus bacteriophage lysins for detection and treatment of gram positive bacteria” (priority 2011, dated 2021).
Entries after “also recorded” stand apart in the source; their conditions may differ.

What was measured:
[1] = test system: B. thuringiensis HD73; experiment: ΔPlySs1 OD600 lysis, 1 hr, optimal buffering conditions; format: cell-based, Bacillus thuringiensis
[2] = test system: S. sanguinis 10556; experiment: as above; format: cell-based, Streptococcus sanguinis
[3] = test system: S. suis strain 7997; experiment: PlySs2 OD600 lytic activity test, various concentrations; format: cell-based, Streptococcus suis
[4] = test system: E. coli; experiment: MIC studies; format: cell-based, Escherichia coli; settings: E. coli negative control
Experimental: The Wiegand, et al. protocol to determine minimum inhibitory concentrations was followed with adjustments detailed below. A final suspension of ≈5×10^5 cells/ml in MHB (or BHI for S. pyogenes) resulted after Sterile-filtered lysin or vehicle was added at the appropriate concentration. These tests were distributed within a 96-well microtiter plate. The MIC's were determined, in this experiment, by detection of pellet formation in the bottom of rounded polysterene plate wells. They were also corroborated colorimetrically with alamarBlue®.

[5] = test system: MRSA strain MW2; experiment: murine septicemia model, MRSA infection alone; format: in vivo, FVB/NJ mice; settings: PlySs2 1 mg
Experimental: The Rockefeller University's Institutional Animal Care and Use Committee approved all in vivo protocols. A systemic infection model described in Daniel, A. et al., was used to test for the in vivo efficacy of PlySs2 against multiple gram-positive bacteria. Briefly, 4-5 week old female FVB/NJ mice (weight range 15 to 20 g) were obtained from The Jackson Laboratory (Bar Harbor, Me.). After a period of acclimation, mice were injected intraperitoneally (IP) with 0.5 ml of mid log-phase (OD600 0.5) bacteria diluted with 5% hog gastric mucin (Sigma) in saline. Bacterial suspensions contained ˜5×10^5 CFU/ml of MW2, a PVL toxin-encoding MRSA strain, ˜1×10^7 of MGAS5005, an M1 serotype of Streptococcus pyogenes that is virulent in humans and mice (Musser), or a combination of both bacteria simultaneously at the above concentrations for the mix infection experiments. Actual bacterial inoculation titers were calculated by serial dilution and plating to Columbia blood agar plates for each experiment. Mice became bacteremic within one to three hours and contained MRSA and/or S. pyogenes in their organs (including spleen, liver, kidney, and heart/blood) ([50], and unpublished observations). […] The survival rate for each experimental group was monitored every 12 hours for the first 24 hours then every 24 hours up to 10 days post-infection. The data were statistically analyzed by Kaplan Meier Survival curves and a Logrank test performed for 95% confidence intervals using the Prism computer program (GraphPad Software; La Jolla, Calif.).
To determine if the broad lytic activity of PlySs2 could provide in vivo protection from infection with gram-positive pathogens, either alone or as a mixed infection, FVB/NJ mice were intraperitoneally injected with ˜5×10^5 CFU of MRSA strain MW2, ˜1×10^7 of S. pyogenes strain MGAS5005 and/or both bacteria simultaneously at the concentrations above. […] Mice were then monitored for survival over ten days. […]

[6] = test system: E. coli; experiment: CFU studies, bactericidal effect; format: cell-based, Escherichia coli; settings: E. coli negative control; 128 μg/ml PlySs2; 60 mins
Experimental: Log-phase bacteria were resuspended in buffer A to an OD600 of 0.1 (=0.5 McFarland≈10^8 CFU/ml). PlySs2 was added at 128 μg/ml to polypropylene microtiter plates (Costar) in triplicate for each test organism. Plates were sealed and incubated at 37° C. with shaking every 5 minutes for 1 hour. After 1 hour of incubation, cells were serially diluted in 10-fold increments and plated on BHI. Triplicate controls for each strain were performed with buffer B replacing PlySs2.

B1: ΔPlySs1: truncated PlySs1 lysin, SEQ ID NO:2, N-terminal 254 amino acids: only N-terminal enzymatic and central binding domains (protein, listed as Streptococcus suis)
chain: MTINLETSIRWMSDRVGKVSYSMDYRNGPNSYDCSSAVYYALMAGGAISAGWAVNTEYMHDWLIRNGYVLVAENKPFNAQRHDVCILGKRGYSSGAGGHVVIFVDNVNVIHCNYARNGISIDNYNQVHRGMYYYLYRPANQPSISNKSLDQLVKETLAGVHGNGDTRKASLGSQYEAVMAVINGKASASEKSDEELAREVLAGKHGAGEDRKRSLGPRYEPVQAKVNELLKAKEKPSETAKNEPQTVQFKEDGDL
lysis value after 1 hr (treated/untreated OD600 ratio) ([1]; 6.5 μg/ml): 0.99 | lysis value after 1 hr (treated/untreated OD600 ratio) ([1]; 13 μg/ml): 0.98 | lysis value after 1 hr (treated/untreated OD600 ratio) ([1]; 30 μg/ml): 0.93 | lysis value after 1 hr (treated/untreated OD600 ratio) ([1]; 65 μg/ml): 0.86 | lysis value after 1 hr (treated/untreated OD600 ratio) ([1]; 130 μg/ml): 0.60 | lysis value after 1 hr (treated/untreated OD600 ratio) ([2]; 6.5 μg/ml): 0.48 | lysis value after 1 hr (treated/untreated OD600 ratio) ([2]; 13 μg/ml): 0.44 | lysis value after 1 hr (treated/untreated OD600 ratio) ([2]; 30 μg/ml): 0.28 | lysis value after 1 hr (treated/untreated OD600 ratio) ([2]; 65 μg/ml): 0.21 | lysis value after 1 hr (treated/untreated OD600 ratio) ([2]; 130 μg/ml): 0.11

B2: PlySs2: Streptococcus suis prophage lysin, SEQ ID NO:3; N-terminal CHAP domain and C-terminal SH3-type 5 domain (protein, listed as Streptococcus suis)
chain: MTTVNEALNNVRAQVGSGVSVGNGECYALASWYERMISPDATVGLGAGVGWVSGAIGDTISAKNIGSSYNWQANGWTVSTSGPFKAGQIVTLGATPGNPYGHVVIVEAVDGDRLTILEQNYGGKRYPVRNYYSAASYRQQVVHYITPPGTVAQSAPNLAGSRSYRETGTMTVTVDALNVRRAPNTSGEIVAVYKRGESFDYDTVIIDVNGYVWVSYIGGSGKRNYVATGATKDGKRFGNAWGTFK
concentration giving acute lytic activity [3]: ≥ 8 µg/mL | minimum inhibitory concentration (MIC) [4]: too high to calculate; also recorded: immeasurable | survival over 10 days (mice surviving/total) ([5]; IP 3 h post-infection, ClyS 1 mg): 16/18 | mice died at forty-eight hours (dead/total) [5]: 2/18 | survival over 10 days ([5]; ClyS 1 mg): 88% | reduction in CFU counts [6]: no reduction in number
